Data: US20230065562A1, “DUAL CONTROLS FOR THERAPEUTIC CELL ACTIVATION OR ELIMINATION” (Bellicum Pharmaceuticals, Inc., priority 2015, published 2023)
Residue numbers refer to the chain shown, from its start. Names may count otherwise. “Also recorded” adds a separate entry of the source.

B1: F404A: modified iCasp9, F404A (protein, UniProt P55211 1-416, looked up, variant F404A)
chain: MDEADRRLLRRCRLRLVEELQVDQLWDALLSRELFRPHMIEDIQRAGSGSRRDQARQLIIDLETRGSQALPLFISCLEDTGQDMLASFLRTNRQAAKLSKPTLENLTPVVLRPEIRKPEVLRPETPRPVDIGSGGFGDVGALESLRGNADLAYILSMEPCGHCLIINNVNFCRESGLRTRTGSNIDCEKLRRRFSSLHFMVEVKGDLTAKKMVLALLELAQQDHGALDCCVVVILSHGCQASHLQFPGAVYGTDGCPVSVEKIVNIFNGTSCPSLGGKPKLFFIQACGGEQKDHGFEVASTSPEDESPGSNPEPDATPFQEGLRTFDQLDAISSLPTPSDIFVSYSTFPGFVSWRDPKSGSWYVETLDDIFEQWAHSEDLQSLLLRVANAVSVKGIYKQMPGCANFLRKKLFFKTS
modifications: FKBP12-F36V fusion (iCasp9), CARD deleted
B2: N405T: modified iCasp9, N405T (protein, UniProt P55211 1-416, looked up, variant N405T)
chain: B1 chain with A404F, N405T
modifications: FKBP12-F36V fusion (iCasp9), CARD deleted
B3: F406A: modified iCasp9, F406A (protein, UniProt P55211 1-416, looked up, variant F406A)
chain: B1 chain with A404F, F406A
modifications: FKBP12-F36V fusion (iCasp9), CARD deleted
B4: F406W: modified iCasp9, F406W (protein, UniProt P55211 1-416, looked up, variant F406W)
chain: B1 chain with A404F, F406W
modifications: FKBP12-F36V fusion (iCasp9), CARD deleted
B5: N405A: modified iCasp9, N405A (protein, UniProt P55211 1-416, looked up, variant N405A)
chain: B1 chain with A404F, N405A
modifications: FKBP12-F36V fusion (iCasp9), CARD deleted
B6: F404W: modified iCasp9, F404W (protein)
chain: VDGFGDVGALESLRGNADLAYILSMEPCGHCLIINNVNFCRESGLRTRTGSNIDCEKLRRRFSSLHFMVEVKGDLTAKKMVLALLELARQDHGALDCCVVVILSHGCQASHLQFPGAVYGTDGCPVSVEKIVNIFNGTSCPSLGGKPKLFFIQACGGEQKDHGFEVASTSPEDESPGSNPEPDATPFQEGLRTFDQLDAISSLPTPSDIFVSYSTFPGFVSWRDPKSGSWYVETLDDIFEQWAHSEDLQSLLLRVANAVSVKGIYKQMPGCWNFLRKKLFFKTSASRA
B7: D330A-N405Q: modified iCasp9 double mutant (SEQ ID NO: 28) (protein)
chain: GFGDVGALESLRGNADLAYILSMEPCGHCLIINNVNFCRESGLRTRTGSNIDCEKLRRRFSSLHFMVEVKGDLTAKKMVLALLELARQDHGALDCCVVVILSHGCQASHLQFPGAVYGTDGCPVSVEKIVNIFNGTSCPSLGGKPKLFFIQACGGEQKDHGFEVASTSPEDESPGSNPEPDATPFQEGLRTFDQLAAISSLPTPSDIFVSYSTFPGFVSWRDPKSGSWYVETLDDIFEQWAHSEDLQSLLLRVANAVSVKGIYKQMPGCFQFLRKKLFFKTS

Test system: HEK293T/16 cells
Test: Secreted alkaline phosphatase (SEAP)-based surrogate killing assay of iCasp9 mutants
Format: cell-based, human
Details: for Basal Activity (relative to wild type/unmodified Caspase-9): SEAP assay without AP1903; for basal activity: relative SEAP activity Units: no AP1903
Experimental: Early passage HEK293T/16 cells (ATCC, Manassas, Va.) were maintained in IMDM, GlutaMAX™ (Life Technologies, Carlsbad, Calif.) supplemented with 10% FBS, 100 U/mL penicillin, and 100 […] until transfection in a humidified, 37° C., 5% CO2/95% air atmosphere. Cells in logarithmic-phase growth were transiently transfected with 800 ng to 2 μg of expression plasmid encoding iCasp9 mutants and 500 ng of an expression plasmid encoding SRα promoter driven SEAP per million cells in 15-mL conical tubes. […] GeneJammer® Transfection Reagent at a ratio of 3 μl per ug of plasmid DNA was used to transiently transfect HEK293T/16 cells in the absence of antibiotics. 100 μl or 2 mL of the transfection mixture was added to each well in 96-well or 6-well plate, respectively.
Briefly, after 65° C. heat denaturation for 45 minutes to reduce background caused by endogenous (and serum-derived) alkaline phosphatases that are sensitive to heat, 5 μl of supernatants was added to 95 μl of PBS and added to 100 μl of substrate buffer, containing 1 μl of 100 mM 4-methylumbelliferyl phosphate (4-MUP; Sigma, St. Louis, Mo.) re-suspended in 2 M diethanolamine. Hydrolysis of 4-MUP by SEAP produces a fluorescent […] with excitation/emission (355/460 nm), which can be easily measured. Assays were performed in black opaque 96-well plates to minimize fluorescence leakage between wells. […] of the mixture was seeded onto each well of a 96-well plate. […] For the assay, 4-methylumbelliferyl phosphate substrate was hydrolyzed by SEAP to 4-methylumbelliferon, a metabolite that can be excited with 364 nm and detected with an emission filter of 448 nm. Since SEAP is used as a marker for cell viability, reduced SEAP reading corresponds with increased iCaspase-9 activities.

Row | Molecule | Basal Activity (relative to wild type/unmodified Caspase-9) | basal activity: relative SEAP activity Units (1 μg iCasp9 per million cells) [Units] | basal activity: relative SEAP activity Units (2 μg iCasp9 per million cells) [Units] | IC50 (AP1903, SEAP screening assay) [pM]
1 | B1 | lowered basal activity and dead | – | – | –
2 | B2 | increased basal activity | – | – | –
3 | B3 | lowered basal activity; also recorded: Decreased | – | – | –
4 | B4 | lowered basal activity; also recorded: Decreased | – | – | –
5 | B5 | no effect | – | – | –
6 | B6 | lowered basal activity; also recorded: Decreased | – | – | –
7 | B7 | intermediate; also recorded: Decreased | 205772 | 174366 | 50
